Results taken from PMC4565672.

Target: HERC2 (endogenous, HEK293 cells) [human (endogenous in HEK293)]
Assay: co-immunoprecipitation (FLAG-IP) and Western blotting, band quantification
Conditions: mean ± SE from five repeated experiments; parent: 1; read off a plot

ratio to parent | Substance
3.4 | FLAG-tagged human LRRK2 (wild type) mutant T1348N [human] / HERC2 (endogenous, HEK293 cells) [human (endogenous in HEK293)] chain 1 T1348N
1.4 | FLAG-tagged human LRRK2 (wild type) mutant R1398L [human] / HERC2 (endogenous, HEK293 cells) [human (endogenous in HEK293)] chain 1 R1398L
2.5 | FLAG-tagged human LRRK2 (wild type) mutant R1441G [human] / HERC2 (endogenous, HEK293 cells) [human (endogenous in HEK293)] chain 1 R1441G

Target: NEURL4 (endogenous, HEK293 cells) [human (endogenous in HEK293)]
Assay: as above
Conditions: mean ± SE from five repeated experiments; parent: 1; read off a plot

ratio to parent | Substance
3.2 | FLAG-tagged human LRRK2 (wild type) mutant R1441G [human] / NEURL4 (endogenous, HEK293 cells) [human (endogenous in HEK293)] chain 1 R1441G
1.8 | FLAG-tagged human LRRK2 (wild type) mutant R1398L [human] / NEURL4 (endogenous, HEK293 cells) [human (endogenous in HEK293)] chain 1 R1398L
4.3 | FLAG-tagged human LRRK2 (wild type) mutant T1348N [human] / NEURL4 (endogenous, HEK293 cells) [human (endogenous in HEK293)] chain 1 T1348N
